According to paper PMC2693456:

Experiments:
[1] = molecular target: Heat Shock Protein 70 Isoform 2 (hsp70-2) (UniProt P14659); assay: biotin-peptide streptavidin pull-down, LC-MS/MS; details: reference: nonphospho-peptide
[2] = molecular target: BiP (Grp78, hsp70 isoform 5) (UniProt P06761); assay: biotin-peptide streptavidin pull-down, LC-MS/MS; details: reference: nonphospho-peptide
[3] = molecular target: heat shock cognate 70 (hsc70; hsp70 isoform 8) (UniProt P63018); assay: biotin-peptide streptavidin pull-down, LC-MS/MS; details: reference: nonphospho-peptide
annexin II = annexin II (UniProt Q07936); assay: biotin-peptide streptavidin pull-down, LC-MS/MS; details: reference: nonphospho-peptide
[4] = molecular target: BiP (Grp78, hsp70 isoform 5) (UniProt P06761); assay: biotin-peptide streptavidin pull-down, immunoblot; details: reference: nonphospho-peptide; sites S256
[5] = molecular target: Heat Shock Protein 70 Isoform 1 (hsp70-1); assay: biotin-peptide streptavidin pull-down, LC-MS/MS; details: reference: nonphospho-peptide; sites S261

Row | other: label-free MS quantification vs no-peptide control (Table 2) ([1]; sites S256) | other: label-free MS quantification vs no-peptide control (Table 2) ([2]; sites S256) | other: label-free MS quantification vs no-peptide control (Table 2) ([3]; sites S256) | other: label-free MS quantification vs no-peptide control (Table 2) (annexin II; sites S256) | binding against the reference [4] | other: label-free MS quantification vs no-peptide control (Table 2) [5] | other: label-free MS quantification vs no-peptide control (Table 2) ([1]; sites S261) | other: label-free MS quantification vs no-peptide control (Table 2) ([2]; sites S261) | other: label-free MS quantification vs no-peptide control (Table 2) ([3]; sites S261) | other: label-free MS quantification vs no-peptide control (Table 2) (annexin II; sites S261) | Substance
1 | weaker; reference 4.17 ± 0.38 | stronger; reference 2.13 ± 0.57 | weaker; reference 5.70 ± 0.27 | weaker; reference 3.19 ± 0.32 | stronger | – | – | – | – | – | aquaporin-2 (AQP2) COOH-terminal peptide COOH-terminal tail (from UniProt P34080) pS256 peptide
2 | – | – | – | – | – | weaker; reference 3.41 ± 0.44 | weaker; reference 4.17 ± 0.38 | weaker; reference 2.13 ± 0.57 | weaker; reference 5.70 ± 0.27 | weaker; reference 3.19 ± 0.32 | aquaporin-2 (AQP2) COOH-terminal peptide COOH-terminal tail (from UniProt P34080) pS261 peptide
